Target: T1, FLAG-tagged p115 head domain (1–655) (human, UniProt O60763 1-655)
T1 sequence (looked up): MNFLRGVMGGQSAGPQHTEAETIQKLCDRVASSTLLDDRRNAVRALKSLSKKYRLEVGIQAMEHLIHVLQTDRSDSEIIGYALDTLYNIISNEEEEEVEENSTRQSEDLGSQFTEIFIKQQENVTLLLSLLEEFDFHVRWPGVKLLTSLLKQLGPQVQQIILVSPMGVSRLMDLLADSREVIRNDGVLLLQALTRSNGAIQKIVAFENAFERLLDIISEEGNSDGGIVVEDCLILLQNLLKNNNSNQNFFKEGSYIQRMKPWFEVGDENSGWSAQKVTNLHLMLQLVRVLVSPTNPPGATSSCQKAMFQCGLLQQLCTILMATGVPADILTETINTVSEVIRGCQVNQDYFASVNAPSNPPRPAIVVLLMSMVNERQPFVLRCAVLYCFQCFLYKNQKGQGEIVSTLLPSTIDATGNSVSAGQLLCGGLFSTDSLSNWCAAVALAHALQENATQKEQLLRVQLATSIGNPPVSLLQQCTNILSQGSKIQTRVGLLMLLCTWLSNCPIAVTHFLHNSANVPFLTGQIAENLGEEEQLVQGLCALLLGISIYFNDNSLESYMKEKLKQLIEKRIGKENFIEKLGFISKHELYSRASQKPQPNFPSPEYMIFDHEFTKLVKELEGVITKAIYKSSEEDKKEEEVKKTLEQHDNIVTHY
Test: pull-down; direct binding assay: FLAG-tagged protein eluted from anti-FLAG beads (1 M NaCl wash, 3×FLAG peptide) was incubated for 1 h at 4°C with GFP-tagged protein held on GFP-Trap beads after harsh washes (1% SDS; 1 M NaCl, 1% Triton X-100); washes with 300 mM NaCl; immunoblot
Settings: both partners purified

- binding result: binds
B1: Sec16A (650–776)–GFP (domain or fragment, human, UniProt O15027 650-776, looked up)
chain: ALPDASPGNLEQPPDNMETLCAPQVCPLPLNSTTEAVHMLPHAGAPPLDTVYPAPEKRPSARTQGPVKCESPATTLWAQSELPDFGGNVLLAPAAPALYVCAKPQPPVVQPPEEAMSGQQSRNPSSA
notes: source: HEK293T, transfected, in lysate (co-precipitation); not shown: GFP, C-terminal, kept
